In data set [1] the target is T1, Isl1 C-terminal fragment (LIM domains removed) (UniProt P61372 134-349).
T1 sequence: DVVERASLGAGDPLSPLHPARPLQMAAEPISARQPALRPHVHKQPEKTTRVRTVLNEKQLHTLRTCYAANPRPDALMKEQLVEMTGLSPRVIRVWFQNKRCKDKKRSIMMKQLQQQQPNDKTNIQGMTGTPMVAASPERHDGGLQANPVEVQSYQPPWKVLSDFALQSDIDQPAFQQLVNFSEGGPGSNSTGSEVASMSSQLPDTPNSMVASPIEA
Briefly: competition; 100x unlabeled mutant vs site 1 probe; 40 mM KCl, 15 mM HEPES pH 7.9, 1 mM EDTA, 0.5 mM DTT, 5% glycerol, 50 ng/ul poly(dI-dC), 2 nM probe, 20 ul, room temperature 20 min; 6% native PAGE in 0.5x TBE. Particulars: protein: ivt; blunt.

The target of data set [2] is T1, Isl1 C-terminal fragment (LIM domains …). Briefly: competition; 100x unlabeled mutant vs site 3 probe; 40 mM KCl, 15 mM HEPES pH 7.9, 1 mM EDTA, 0.5 mM DTT, 5% glycerol, 50 ng/ul poly(dI-dC), 2 nM probe, 20 ul, room temperature 20 min; 6% native PAGE in 0.5x TBE. The following applies: protein: ivt; blunt.
The target is the same in data set [3]. Briefly: EMSA; self-competed by 100x unlabeled; blocked by Isl1 antibody 40.2D6; 40 mM KCl, 15 mM HEPES pH 7.9, 1 mM EDTA, 0.5 mM DTT, 5% glycerol, 50 ng/ul poly(dI-dC), 2 nM probe, 20 ul, room temperature 20 min; 6% native PAGE in 0.5x TBE. The following applies: protein: ivt; label: 5'-biotin (probe); blunt. In general terms: Mobility shift assays separate free from complexed probe on a gel.

B1: Gata3-P1 number 1 mutant (dsDNA)
DNA 1: GTCCTCTTTCCCACGGCCCCACTGTCAGTC
DNA 2: GACTGACAGTGGGGCCGTGGGAAAGAGGAC
Consider B1, for which, in data set [1], the binding result is “no binding”.

B2: Gata3-P1 number 3 mutant (dsDNA)
DNA 1: CCTGGAGGGGCCTCGGCGATATTTTGTTTT
DNA 2: AAAACAAAATATCGCCGAGGCCCCTCCAGG
In the case of B2, the binding result in data set [2] is recorded as “no binding”.

B3: Gata3-P1 number 3 wild type (dsDNA)
DNA 1: CCTGGAGGGGCCTATTAGATATTTTGTTTT
DNA 2: AAAACAAAATATCTAATAGGCCCCTCCAGG
Take B3: in data set [3], the binding result is given as “binds”.

B4: Gata3-P1 number 1 wild type (dsDNA)
DNA 1: GTCCTCTTTCCCAATTACCCACTGTCAGTC
DNA 2: GACTGACAGTGGGTAATTGGGAAAGAGGAC
For B4, the binding result in data set [3] is on record as “binds”.

For the origin of these results see article PMC4021819, “LIM homeodomain transcription factor Isl1 directs normal pyloric development by targeting Gata3”.
